What was measured:
Test in all cases: cell-based or functional assay
[1] = target: DR3 receptor expressed in HeLa TRADD DR3 cells (Homo sapiens (Human)) (UniProt Q93038)
[2] = target: Recombinant Human TL1A/TNFSF15 (R&D Systems, Cat N° 1319-TL) (human) (UniProt O95150)
[3] = target: recombinant human TNF-α (Peprotech, Cat N° 300-01A) (human) (UniProt P01375)
Chain of recombinant human TNF-α (Peprotech, Cat N° 300-01A) (human) (P01375 77-233 limits assumed): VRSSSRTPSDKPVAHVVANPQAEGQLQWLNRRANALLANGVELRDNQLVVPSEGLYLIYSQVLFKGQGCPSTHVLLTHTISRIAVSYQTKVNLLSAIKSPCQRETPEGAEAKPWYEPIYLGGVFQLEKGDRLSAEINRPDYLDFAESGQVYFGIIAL

Chain of Recombinant Human TL1A/TNFSF15 (R&D Systems, Cat N° 1319-TL) (human) (O95150 72-251 limits assumed): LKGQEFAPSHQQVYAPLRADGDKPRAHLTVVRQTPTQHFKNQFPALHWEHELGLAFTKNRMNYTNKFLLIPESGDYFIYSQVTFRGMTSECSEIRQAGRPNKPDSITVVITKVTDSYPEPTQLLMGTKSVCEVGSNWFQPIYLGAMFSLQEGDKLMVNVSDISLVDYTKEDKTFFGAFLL
Chain of DR3 receptor expressed in HeLa TRADD DR3 cells (Homo sapiens (Human)) (Q93038 other isoform, or with tags, fused parts or gaps, form in doubt): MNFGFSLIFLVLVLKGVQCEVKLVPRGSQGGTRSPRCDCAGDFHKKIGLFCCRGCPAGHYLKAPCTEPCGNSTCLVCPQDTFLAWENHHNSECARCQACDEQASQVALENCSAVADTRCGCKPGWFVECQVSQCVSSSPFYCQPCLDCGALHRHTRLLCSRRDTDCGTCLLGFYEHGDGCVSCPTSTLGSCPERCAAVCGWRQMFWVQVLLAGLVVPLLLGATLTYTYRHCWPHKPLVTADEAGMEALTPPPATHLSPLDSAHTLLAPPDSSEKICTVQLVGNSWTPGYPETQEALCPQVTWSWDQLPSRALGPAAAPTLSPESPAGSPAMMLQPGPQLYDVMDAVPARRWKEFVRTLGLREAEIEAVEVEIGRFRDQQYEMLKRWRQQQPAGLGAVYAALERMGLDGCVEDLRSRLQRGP

**Q.** “Recombinant Human TL1A/TNFSF15 (R&D Systems, Cat N° 1319-TL) (from UniProt O95150 72-251) (ligand)” was tested. Which EC50 of TL1A-induced relocalisation of TRADD-EYFP in HeLa TRADD DR3 cells (FIG. 17) [1] did it give?
**A.** 0.0043 µg/mL

**Q.** Which IC50 of inhibition of TL1A-induced TRADD-EYFP relocalisation in HeLa TRADD DR3 cells (300 ng/ml TL1A, FIG. 17) [2] does the source give for “Recombinant Human DcR3/TNFRSF6B/Fc Chimera, CF (R&D Systems, Cat N° 142-DC) (from UniProt O95407 30-300) (Fc fusion)” here?
**A.** 1.41 µg/mL

**Q.** How did the IC50 of inhibition of TNF-induced TRADD-EYFP relocalisation in HeLa TRADD DR3 cells (100 ng/ml TNF, FIG. 19) [3] turn out when “etanercept (Enbrel®, from Amgen, Inc.) (Fc fusion)” was run?
**A.** 0.0538 µg/mL

**Q.** And the IC50 of inhibition of TNF-induced relocalisation of TRADD-EYFP (TNF dose 300 ng/ml, FIG. 9) [3]?
**A.** 2740 nM
